From patent publication US20210095021A1 (MacroGenics, published 2021)

Tests used:
[1] = molecular target: HIV gp160 (HxB2) expressed by tetracycline-induced Jurkat 522 FY cells (HIV (HxB2), UniProt P04578 33-856); assay: cell-based or functional assay
[2] = molecular target: HIV gp140 (CM244, subtype AE, R5-tropic) expressed by HEK 293 D371 cells (HIV (CM244, subtype AE)); assay: cell-based or functional assay

Binder	EC50 (ng/mL) of CD8-mediated cytotoxicity, pan T cells, 24 h [1] [ng/mL]	EC50 (ng/mL) of CD8-mediated cytotoxicity, pan T cells, 24 h [2] [ng/mL]
anti-CD3 × anti-HIV env bispecific diabody (anti-HIV env antibody 7B2 and humanized anti-CD3 Antibody 2 binding domains) (bispecific antibody) chain 1: DIVMTQSPDSLAVSPGERATIHCKSSQTLLYSSNNRHSIAWYQQRPGQPPKLLLYWASMRLSGVPDRFSGSGSGTDFTLTINNLQAEDVAIYYCHQYSSHPPTFGHGTRVEIKGGGSGGGGEVQLVESGGGLVQPGGSLRLSCAASGFTFSTYAMNWVRQAPGKGLEWVGRIRSKYNNYATYYADSVKGRFTISRDDSKNSLYLQMNSLKTEDTAVYYCVRHGNFGNSYVSWFAYWGQGTLVTVSSGGCGGGEVAALEKEVAALEKEVAALEKEVAALEK chain 2: QAVVTQEPSLTVSPGGTVTLTCRSSTGAVTTSNYANWVQQKPGQAPRGLIGGTNKRAPWTPARFSGSLLGGKAALTITGAQAEDEADYYCALWYSNLWVFGGGTKLTVLGGGGSGGGGQVQLVQSGGGVFKPGGSLRLSCEASGFTFTEYYMTWVRQAPGKGLEWLAYISKNGEYSKYSPSSNGRFTISRDNAKNSVFLQLDRLSADDTAVYYCARADGLTYFSELLQYIFDLWGQGARVTVSSGGCGGGKVAALKEKVAALKEKVAALKEKVAALKE	0.49	0.006
anti-CD3 × anti-HIV gp120 bispecific diabody (anti-HIV gp120 antibody A32 and humanized anti-CD3 Antibody 2 binding domains) (bispecific antibody) chain 1: QSALTQPPSASGSPGQSVTISCTGTSSDVGGYNYVSWYQHHPGKAPKLIISEVNNRPSGVPDRFSGSKSGNTASLTVSGLQAEDEAEYYCSSYTDIHNFVFGGGTKLTVLGGGSGGGGEVQLVESGGGLVQPGGSLRLSCAASGFTFSTYAMNWVRQAPGKGLEWVGRIRSKYNNYATYYADSVKGRFTISRDDSKNSLYLQMNSLKTEDTAVYYCVRHGNFGNSYVSWFAYWGQGTLVTVSSGGCGGGEVAALEKEVAALEKEVAALEKEVAALEK chain 2: QAVVTQEPSLTVSPGGTVTLTCRSSTGAVTTSNYANWVQQKPGQAPRGLIGGTNKRAPWTPARFSGSLLGGKAALTITGAQAEDEADYYCALWYSNLWVFGGGTKLTVLGGGGSGGGGQVQLQESGPGLVKPSQTLSLSCTVSGGSSSSGAHYWSWIRQYPGKGLEWIGYIHYSGNTYYNPSLKSRITISQHTSENQFSLKLNSVTVADTAVYYCARGTRLRTLRNAFDIWGQGTLVTVSSGGCGGGKVAALKEKVAALKEKVAALKEKVAALKE	0.75	0.024
